Measurements from US20200248174.

Experiments:
[1] = biological target: dCas9 (SpCas9 D10A, H840A) ligated to SH3 domain via 2xGS linker
[2] = biological target: dCas9 (SpCas9 D10A, H840A) with a plurality of binding domains (SH3 domains)

B1: human AID deaminase added with SH3 ligand sequence (protein)
chain: MDSLLMNRRKFLYQFKNVRWAKGRRETYLCYVVKRRDSATSFSLDFGYLRNKNGCHVELLFLRYISDWDLDPGRCYRVTWFTSWSPCYDCARHVADFLRGNPYLSLRIFTARLYFCEDRKAEPEGLRRLHRAGVQIAIMTFKDYFYCWNTFVENHERTFKAWEGLHENSVRLSRQLRRILLPLYEVDDLRDAFRTLGLLDPPPALPPKRRR
- introduction of mutation into the targeted site of the CAN1 gene in budding yeast [1]: even when dCas9 and deaminase were linked via the binding domain, mutation was efficiently introduced into the targeted site of the CAN1 gene
- mutation introduction efficiency at the CAN1 gene in budding yeast [2]: The mutation introduction efficiency was remarkably improved by introducing a plurality of binding domains into dCas9
